Sequences and labels used below:
B1: EF-hand domain-containing protein 1 (Homo sapiens), Q5JVL4 (parent)
chain: MVSNPVHGLPFLPGTSFKDSTKTAFHRSQTLSYRNGYAIVRRPTVGIGGDRLQFNQLSQAELDELASKAPVLTYGQPKQAPPADFIPAHVAFDKKVLKFDAYFQEDVPMSTEEQYRIRQVNIYYYLEDDSMSVIEPVVENSGILQGKLIKRQRLAKNDRGDHYHWKDLNRGINITIYGKTFRVVDCDQFTQVFLESQGIELNPPEKMALDPYTELRKQPLRKYVTPSDFDQLKQFLTFDKQVLRFYAIWDDTDSMYGECRTYIIHYYLMDDTVEIREVHERNDGRDPFPLLMNRQRVPKVLVENAKNFPQCVLEISDQEVLEWYTAKDFIVGKSLTILGRTFFIYDCDPFTRRYYKEKFGITDLPRIDVSKREPPPVKQELPPYNGFGLVEDSAQNCFALIPKAPKKDVIKMLVNDNKVLRYLAVLESPIPEDKDRRFVFSYFLATDMISIFEPPVRNSGIIGGKYLGRTKVVKPYSTVDNPVYYGPSDFFIGAVIEVFGHRFIILDTDEYVLKYMESNAAQYSPEALASIQNHVRKREAPAPEAESKQTEKDPGVQELEALIDTIQKQLKDHSCKDNIREAFQIYDKEASGYVDRDMFFKICESLNVPVDDSLVKELIRMCSHGEGKINYYNFVRAFSN
partner: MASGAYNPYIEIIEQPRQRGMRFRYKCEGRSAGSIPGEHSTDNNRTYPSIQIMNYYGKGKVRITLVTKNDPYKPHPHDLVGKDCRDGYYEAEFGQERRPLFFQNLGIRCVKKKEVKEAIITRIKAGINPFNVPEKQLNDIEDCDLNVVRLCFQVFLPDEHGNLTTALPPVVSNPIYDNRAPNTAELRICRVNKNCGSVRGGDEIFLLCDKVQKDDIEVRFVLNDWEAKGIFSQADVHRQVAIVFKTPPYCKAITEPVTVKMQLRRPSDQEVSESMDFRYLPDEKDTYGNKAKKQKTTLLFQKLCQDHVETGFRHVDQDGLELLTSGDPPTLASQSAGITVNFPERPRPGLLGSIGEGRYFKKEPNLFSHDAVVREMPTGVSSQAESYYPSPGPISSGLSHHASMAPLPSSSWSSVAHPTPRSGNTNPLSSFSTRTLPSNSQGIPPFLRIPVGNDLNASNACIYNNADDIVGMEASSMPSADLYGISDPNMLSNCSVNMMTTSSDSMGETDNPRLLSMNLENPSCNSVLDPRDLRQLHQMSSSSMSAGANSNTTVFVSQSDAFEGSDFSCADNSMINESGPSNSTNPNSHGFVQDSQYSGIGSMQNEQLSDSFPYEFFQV
B2: X-linked retinitis pigmentosa GTPase regulator (Homo sapiens), Q92834 (parent)
chain: MREPEELMPDSGAVFTFGKSKFAENNPGKFWFKNDVPVHLSCGDEHSAVVTGNNKLYMFGSNNWGQLGLGSKSAISKPTCVKALKPEKVKLAACGRNHTLVSTEGGNVYATGGNNEGQLGLGDTEERNTFHVISFFTSEHKIKQLSAGSNTSAALTEDGRLFMWGDNSEGQIGLKNVSNVCVPQQVTIGKPVSWISCGYYHSAFVTTDGELYVFGEPENGKLGLPNQLLGNHRTPQLVSEIPEKVIQVACGGEHTVVLTENAVYTFGLGQFGQLGLGTFLFETSEPKVIENIRDQTISYISCGENHTALITDIGLMYTFGDGRHGKLGLGLENFTNHFIPTLCSNFLRFIVKLVACGGCHMVVFAAPHRGVAKEIEFDEINDTCLSVATFLPYSSLTSGNVLQRTLSARMRRRERERSPDSFSMRRTLPPIEGTLGLSACFLPNSVFPRCSERNLQESVLSEQDLMQPEEPDYLLDEMTKEAEIDNSSTVESLGETTDILNMTHIMSLNSNEKSLKLSPVQKQKKQQTIGELTQDTALTENDDSDEYEEMSEMKEGKACKQHVSQGIFMTQPATTIEAFSDEEVGNDTGQVGPQADTDGEGLQKEVYRHENNNGVDQLDAKEIEKESDGGHSQKESEAEEIDSEKETKLAEIAGMKDLREREKSTKKMSPFFGNLPDRGMNTESEENKDFVKKRESCKQDVIFDSERESVEKPDSYMEGASESQQGIADGFQQPEAIEFSSGEKEDDEVETDQNIRYGRKLIEQGNEKETKPIISKSMAKYDFKCDRLSEIPEEKEGAEDSKGNGIEEQEVEANEENVKVHGGRKEKTEILSDDLTDKAEDHEFSKTEELKLEDVDEEINAENVESKKKTVGDDESVPTGYHSKTEGAERTNDDSSAETIEKKEKANLEERAICEYNENPKGYMLDDADSSSLEILENSETTPSKDMKKTKKIFLFKRVPSINQKIVKNNNEPLPEIKSIGDQIILKSDNKDADQNHMSQNHQNIPPTNTERRSKSCTIL
partner: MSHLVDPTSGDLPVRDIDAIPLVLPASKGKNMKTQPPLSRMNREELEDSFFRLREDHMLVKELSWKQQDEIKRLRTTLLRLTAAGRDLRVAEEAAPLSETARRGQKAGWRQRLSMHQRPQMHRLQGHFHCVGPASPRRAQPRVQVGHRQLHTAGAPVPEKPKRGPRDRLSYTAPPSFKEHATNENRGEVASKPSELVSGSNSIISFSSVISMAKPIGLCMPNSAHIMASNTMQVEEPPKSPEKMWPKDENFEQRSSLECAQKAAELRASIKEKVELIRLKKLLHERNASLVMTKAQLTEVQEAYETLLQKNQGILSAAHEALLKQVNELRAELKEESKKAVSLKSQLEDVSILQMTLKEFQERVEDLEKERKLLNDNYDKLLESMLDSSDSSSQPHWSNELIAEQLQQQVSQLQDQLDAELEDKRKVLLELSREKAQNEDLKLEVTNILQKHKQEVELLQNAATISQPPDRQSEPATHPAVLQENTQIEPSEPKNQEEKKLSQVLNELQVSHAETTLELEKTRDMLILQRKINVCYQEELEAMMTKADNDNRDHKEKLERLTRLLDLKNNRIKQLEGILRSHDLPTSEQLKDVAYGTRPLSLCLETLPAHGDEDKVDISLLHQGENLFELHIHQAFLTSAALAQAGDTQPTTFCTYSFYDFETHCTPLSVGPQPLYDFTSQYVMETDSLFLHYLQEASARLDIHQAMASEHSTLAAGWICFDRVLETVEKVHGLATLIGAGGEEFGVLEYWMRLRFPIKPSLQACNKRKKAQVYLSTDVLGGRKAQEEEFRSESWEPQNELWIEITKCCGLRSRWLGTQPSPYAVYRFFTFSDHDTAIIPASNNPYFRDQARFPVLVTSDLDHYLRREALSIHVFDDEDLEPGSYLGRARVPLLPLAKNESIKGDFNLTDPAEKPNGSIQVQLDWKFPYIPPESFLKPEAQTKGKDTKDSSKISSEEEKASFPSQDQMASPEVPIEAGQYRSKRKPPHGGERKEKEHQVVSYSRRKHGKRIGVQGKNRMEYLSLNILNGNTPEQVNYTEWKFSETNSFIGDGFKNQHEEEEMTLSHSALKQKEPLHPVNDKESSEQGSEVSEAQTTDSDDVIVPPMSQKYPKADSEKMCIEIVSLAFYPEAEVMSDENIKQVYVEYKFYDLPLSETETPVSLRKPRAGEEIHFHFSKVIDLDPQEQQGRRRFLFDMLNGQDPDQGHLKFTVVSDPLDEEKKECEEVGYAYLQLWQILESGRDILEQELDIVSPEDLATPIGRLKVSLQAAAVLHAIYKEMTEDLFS
B3: Chorion-specific transcription factor GCMb (Homo sapiens), O75603 (parent)
chain: MPAAAVQEAVGVCSYGMQLSWDINDPQMPQELALFDQFREWPDGYVRFIYSSDEKKAQRHLSGWAMRNTNNHNGHILKKSCLGVVVCTQACTLPDGSRLQLRPAICDKARLKQQKKACPNCHSALELIPCRGHSGYPVTNFWRLDGNAIFFQAKGVHDHPRPESKSETEARRSAIKRQMASFYQPQKKRIRESEAEENQDSSGHFSNIPPLENPEDFDIVTETSFPIPGQPCPSFPKSDVYKATCDLATFQGDKMPPFQKYSSPRIYLPRPPCSYELANPGYTNSSPYPTLYKDSTSIPNDTDWVHLNTLQCNVNSYSSYERSFDFTNKQHGWKPALGKPSLVERTNHGQFQAMATRPYYNPELPCRYLTTPPPGAPALQTVITTTTKVSYQAYQPPAMKYSDSVREVKSLSSCNYAPEDTGMSVYPEPWGPPVTVTRAASPSGPPPMKIAGDCRAIRPTVAIPHEPVSSRTDEAETWDVCLSGLGSAVSYSDRVGPFFTYNNEDF
partner: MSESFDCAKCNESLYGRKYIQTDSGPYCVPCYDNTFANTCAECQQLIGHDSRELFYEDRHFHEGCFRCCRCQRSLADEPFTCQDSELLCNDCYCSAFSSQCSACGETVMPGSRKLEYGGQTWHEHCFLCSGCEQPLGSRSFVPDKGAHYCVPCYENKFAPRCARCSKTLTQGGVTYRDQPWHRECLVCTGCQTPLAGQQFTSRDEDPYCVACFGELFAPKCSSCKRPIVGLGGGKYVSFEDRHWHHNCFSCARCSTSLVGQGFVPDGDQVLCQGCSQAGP
B4: Plakophilin-2 (Homo sapiens), Q99959 (parent)
chain: MAAPGAPAEYGYIRTVLGQQILGQLDSSSLALPSEAKLKLAGSSGRGGQTVKSLRIQEQVQQTLARKGRSSVGNGNLHRTSSVPEYVYNLHLVENDFVGGRSPVPKTYDMLKAGTTATYEGRWGRGTAQYSSQKSVEERSLRHPLRRLEISPDSSPERAHYTHSDYQYSQRSQAGHTLHHQESRRAALLVPPRYARSEIVGVSRAGTTSRQRHFDTYHRQYQHGSVSDTVFDSIPANPALLTYPRPGTSRSMGNLLEKENYLTAGLTVGQVRPLVPLQPVTQNRASRSSWHQSSFHSTRTLREAGPSVAVDSSGRRAHLTVGQAAAGGSGNLLTERSTFTDSQLGNADMEMTLERAVSMLEADHMLPSRISAAATFIQHECFQKSEARKRVNQLRGILKLLQLLKVQNEDVQRAVCGALRNLVFEDNDNKLEVAELNGVPRLLQVLKQTRDLETKKQITDHTVNLRSRNGWPGAVAHACNPSTLGGQGGRITRSGVRDQPDQHGLLWNLSSNDKLKNLMITEALLTLTENIIIPFSGWPEGDYPKANGLLDFDIFYNVTGCLRNMSSAGADGRKAMRRCDGLIDSLVHYVRGTIADYQPDDKATENCVCILHNLSYQLEAELPEKYSQNIYIQNRNIQTDNNKSIGCFGSRSRKVKEQYQDVPMPEEKSNPKGVEWLWHSIVIRMYLSLIAKSVRNYTQEASLGALQNLTAGSGPMPTSVAQTVVQKESGLQHTRKMLHVGDPSVKKTAISLLRNLSRNLSLQNEIAKETLPDLVSIIPDTVPSTDLLIETTASACYTLNNIIQNSYQNARDLLNTGGIQKIMAISAGDAYASNKASKAASVLLYSLWAHTELHHAYKKAQFKKTDFVNSRTAKAYHSLKD
partner: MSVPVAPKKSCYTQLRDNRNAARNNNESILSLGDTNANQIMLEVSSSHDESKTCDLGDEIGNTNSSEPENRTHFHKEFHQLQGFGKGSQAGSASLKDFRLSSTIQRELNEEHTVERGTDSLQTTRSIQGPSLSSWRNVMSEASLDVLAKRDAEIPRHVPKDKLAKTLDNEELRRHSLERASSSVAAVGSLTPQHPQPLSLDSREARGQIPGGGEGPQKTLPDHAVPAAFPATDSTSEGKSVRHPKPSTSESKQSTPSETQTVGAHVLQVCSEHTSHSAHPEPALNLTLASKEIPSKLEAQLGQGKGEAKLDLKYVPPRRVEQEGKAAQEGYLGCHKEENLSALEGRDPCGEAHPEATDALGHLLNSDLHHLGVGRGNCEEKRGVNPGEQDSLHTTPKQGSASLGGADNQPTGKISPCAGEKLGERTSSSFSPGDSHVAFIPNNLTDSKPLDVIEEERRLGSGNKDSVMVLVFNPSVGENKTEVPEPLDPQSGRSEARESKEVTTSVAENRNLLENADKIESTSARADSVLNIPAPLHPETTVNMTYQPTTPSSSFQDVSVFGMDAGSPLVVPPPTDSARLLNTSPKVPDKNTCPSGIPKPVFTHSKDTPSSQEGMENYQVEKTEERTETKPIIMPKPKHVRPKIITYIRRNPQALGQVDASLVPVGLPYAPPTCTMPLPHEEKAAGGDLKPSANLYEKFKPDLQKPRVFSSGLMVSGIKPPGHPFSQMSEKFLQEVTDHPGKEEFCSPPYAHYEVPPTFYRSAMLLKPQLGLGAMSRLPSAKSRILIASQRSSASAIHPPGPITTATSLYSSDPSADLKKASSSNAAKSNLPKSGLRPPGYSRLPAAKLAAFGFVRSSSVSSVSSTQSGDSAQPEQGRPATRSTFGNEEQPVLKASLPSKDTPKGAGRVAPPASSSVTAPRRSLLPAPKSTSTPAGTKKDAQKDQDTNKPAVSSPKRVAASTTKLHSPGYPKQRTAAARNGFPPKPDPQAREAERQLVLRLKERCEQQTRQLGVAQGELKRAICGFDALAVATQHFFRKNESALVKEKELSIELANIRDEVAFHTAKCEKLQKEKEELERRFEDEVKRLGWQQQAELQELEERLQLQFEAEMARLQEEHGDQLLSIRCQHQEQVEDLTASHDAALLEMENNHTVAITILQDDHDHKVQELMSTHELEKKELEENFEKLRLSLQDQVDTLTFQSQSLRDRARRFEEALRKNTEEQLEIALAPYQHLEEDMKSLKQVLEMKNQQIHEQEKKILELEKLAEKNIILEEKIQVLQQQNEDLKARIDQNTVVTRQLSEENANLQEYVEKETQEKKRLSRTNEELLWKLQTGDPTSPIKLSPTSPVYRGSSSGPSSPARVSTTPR

The variants in one assay derive from B1. Conditions: with rel_human REL.
For T508R, the “effect of a mutation on the interaction” value is on record as “disrupting interaction”.

Another assay covers variants of B2. The following applies: with rpgr1_human RPGRIP1, Q96KN7.
For H98Q, the “effect of a mutation on the interaction” value is “disrupting interaction”.

A further assay covers variants of B2. Conditions: with rpgr1_human RPGRIP1, Q96KN7. This is another data set of the same source.
With T255I, the “effect of a mutation on the interaction” value is “disrupting interaction”.

In the next assay the parent is B3. The following applies: with fhl3_human FHL3, Q13643.
For R47L, the “effect of a mutation on the interaction” value is on record as “disrupting interaction”.

Another assay covers variants of B4. Conditions: with mtus2_human MTUS2, Q5JR59.
S644P: the “effect of a mutation on the interaction” value was “disrupting interaction”.
